Results published in article PMC4148193, “Chromatin Insulator Factors Involved in Long-Range DNA Interactions and Their Role in the Folding of the Drosophila Genome” (PLoS Genetics, 2014).

Columns and labels:
[1] = target: the molecule itself; test: SEC; gel-filtration analysis of CP190-BTB/POZ; conditions not shown
[2] = target: T1, Chromator, full-length, His-tagged (Drosophila, UniProt Q86BS3 1-926); test: fluorescence polarisation; fluorescence anisotropy of CP190-BTB/POZ-Cy5 as reporter of Chromator binding; apparent affinity; conditions: both partners purified
T1 construct: Chromator (Chriz), Drosophila; amplified from S2 cell cDNA; also called Chriz; source: E. coli BL21 (DE3)-pLysS, purified
T1 sequence (looked up): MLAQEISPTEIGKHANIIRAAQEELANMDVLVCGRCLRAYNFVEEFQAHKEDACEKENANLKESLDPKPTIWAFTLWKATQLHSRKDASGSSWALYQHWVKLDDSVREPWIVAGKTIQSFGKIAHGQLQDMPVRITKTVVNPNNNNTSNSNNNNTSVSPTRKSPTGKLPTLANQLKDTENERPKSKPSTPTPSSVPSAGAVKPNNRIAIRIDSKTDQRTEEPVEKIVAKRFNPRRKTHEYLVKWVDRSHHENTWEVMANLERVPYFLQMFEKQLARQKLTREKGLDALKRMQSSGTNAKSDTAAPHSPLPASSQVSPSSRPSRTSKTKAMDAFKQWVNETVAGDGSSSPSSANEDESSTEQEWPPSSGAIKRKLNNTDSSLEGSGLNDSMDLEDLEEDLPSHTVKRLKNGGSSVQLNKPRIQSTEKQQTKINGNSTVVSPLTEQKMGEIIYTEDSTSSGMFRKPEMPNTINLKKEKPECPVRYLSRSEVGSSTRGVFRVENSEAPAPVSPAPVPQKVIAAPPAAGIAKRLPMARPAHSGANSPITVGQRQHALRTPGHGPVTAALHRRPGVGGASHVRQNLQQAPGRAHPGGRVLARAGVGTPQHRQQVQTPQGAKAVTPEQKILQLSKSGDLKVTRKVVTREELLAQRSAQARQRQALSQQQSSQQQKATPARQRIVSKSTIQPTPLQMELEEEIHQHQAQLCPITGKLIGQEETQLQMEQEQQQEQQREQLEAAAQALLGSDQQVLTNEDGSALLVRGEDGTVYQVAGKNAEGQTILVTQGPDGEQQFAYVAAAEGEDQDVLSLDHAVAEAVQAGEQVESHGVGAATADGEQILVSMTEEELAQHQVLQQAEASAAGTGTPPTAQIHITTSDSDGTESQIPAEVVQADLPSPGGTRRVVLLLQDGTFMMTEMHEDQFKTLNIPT

CP190 = target: T2, CP190 (Drosophila, UniProt Q24478 1-1096); test: fluorescence anisotropy; Hill n=2±0.3; 20 uM ZnSO4; FA/FCS: 30 mM Tris/HCl pH 7.5, 100 mM NaCl, 20 uM ZnSO4, 5 mM mercaptoethanol, 0.01 mg/ml BSA, 0.004% Tween20, 2.5 nM DNA; EMSA: 150 mM NaCl, 30 mM Tris/HCl pH; conditions: protein: recombinant; tags: N-term 6xHis; blunt
T2 sequence: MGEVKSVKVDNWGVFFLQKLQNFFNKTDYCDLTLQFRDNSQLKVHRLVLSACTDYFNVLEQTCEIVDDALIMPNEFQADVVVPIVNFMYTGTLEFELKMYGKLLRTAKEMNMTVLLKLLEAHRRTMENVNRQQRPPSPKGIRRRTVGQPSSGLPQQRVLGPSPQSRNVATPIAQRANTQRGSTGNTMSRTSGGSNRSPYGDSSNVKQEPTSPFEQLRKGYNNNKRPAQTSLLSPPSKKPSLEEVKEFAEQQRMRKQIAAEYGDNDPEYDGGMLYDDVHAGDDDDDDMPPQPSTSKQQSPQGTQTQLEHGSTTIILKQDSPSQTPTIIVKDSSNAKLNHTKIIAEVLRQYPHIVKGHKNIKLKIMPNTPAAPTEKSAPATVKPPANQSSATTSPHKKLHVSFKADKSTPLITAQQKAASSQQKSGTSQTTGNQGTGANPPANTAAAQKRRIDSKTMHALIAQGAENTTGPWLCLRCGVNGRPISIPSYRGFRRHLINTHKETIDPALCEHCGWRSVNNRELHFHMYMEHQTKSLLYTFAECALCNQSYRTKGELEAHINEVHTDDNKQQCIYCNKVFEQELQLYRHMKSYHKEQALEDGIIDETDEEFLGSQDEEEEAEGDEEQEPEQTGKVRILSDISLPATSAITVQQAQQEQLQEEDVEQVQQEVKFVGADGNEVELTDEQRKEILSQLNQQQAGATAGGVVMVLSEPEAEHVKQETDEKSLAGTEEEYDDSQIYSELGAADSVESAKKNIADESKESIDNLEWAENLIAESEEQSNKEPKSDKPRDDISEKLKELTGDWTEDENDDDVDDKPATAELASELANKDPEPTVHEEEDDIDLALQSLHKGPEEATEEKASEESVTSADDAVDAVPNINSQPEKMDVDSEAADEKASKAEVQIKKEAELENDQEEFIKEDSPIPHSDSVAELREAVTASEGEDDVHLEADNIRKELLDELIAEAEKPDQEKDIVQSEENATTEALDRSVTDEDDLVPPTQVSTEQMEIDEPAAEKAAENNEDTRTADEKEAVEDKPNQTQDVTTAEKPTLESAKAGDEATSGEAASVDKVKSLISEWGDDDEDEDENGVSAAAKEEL

BEAF32 (BEAF32B) = target: T3, BEAF32 (BEAF32B) (Drosophila, UniProt Q94513 1-282); test: fluorescence anisotropy; single-site fit; 20 uM ZnSO4; FA/FCS: 30 mM Tris/HCl pH 7.5, 100 mM NaCl, 20 uM ZnSO4, 5 mM mercaptoethanol, 0.01 mg/ml BSA, 0.004% Tween20, 2.5 nM DNA; EMSA: 150 mM NaCl, 30 mM Tris/HCl pH; conditions: protein: recombinant; tags: N-term MBP; C-term 6xHis; blunt
T3 sequence: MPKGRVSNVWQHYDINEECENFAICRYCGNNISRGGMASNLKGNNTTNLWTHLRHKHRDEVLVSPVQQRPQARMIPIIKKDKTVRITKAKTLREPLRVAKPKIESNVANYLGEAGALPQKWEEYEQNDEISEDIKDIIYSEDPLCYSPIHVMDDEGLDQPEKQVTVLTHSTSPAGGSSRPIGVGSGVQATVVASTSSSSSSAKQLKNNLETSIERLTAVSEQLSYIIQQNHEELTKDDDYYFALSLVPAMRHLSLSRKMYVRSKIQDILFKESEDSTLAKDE

B1: CP190-BTB/POZ (BTB/POZ domain of CP190), His-tagged (domain or fragment, Drosophila)
chain: MGEVKSVKVDNWGVFFLQKLQNFFNKTDYCDLTLQFRDNSQLKVHRLVLSACTDYFNVLEQTCEIVDDALIMPNEFQADVVVPIVNFMYTGTLEFELKMYGKLLRTAKEMNMTVLLKLLEAHRRTMENVNRQQR
notes: N-terminal BTB/POZ domain of CP190, Drosophila; source: E. coli BL21 (DE3)-pLysS, purified
stoichiometry N [1]: 2

B2: CP190-BTB/POZ-Cy5 (CP190-BTB/POZ Cy5-labelled on its N-terminal) (domain or fragment, Drosophila)
chain: MGEVKSVKVDNWGVFFLQKLQNFFNKTDYCDLTLQFRDNSQLKVHRLVLSACTDYFNVLEQTCEIVDDALIMPNEFQADVVVPIVNFMYTGTLEFELKMYGKLLRTAKEMNMTVLLKLLEAHRRTMENVNRQQR
modifications: Cy5 on the N-terminal
notes: N-terminal BTB/POZ domain of CP190, Drosophila; same construct as m4, labelled with Cy5; Same protein as m4 with a Cy5 label; source: E. coli BL21 (DE3)-pLysS, purified
Kd [2]: ~50 nM

B3: DNANS (dsDNA)
DNA 1: GGACAGGTATTGTGCCATACTGACCACATCGTCTTGGTCTATAAGCTCCACGACATCC
DNA 2: GGATGTCGTGGAGCTTATAGACCAAGACGATGTGGTCAGTATGGCACAATACCTGTCC
Kd (CP190): 109 ± 5 nM | Kd (BEAF32 (BEAF32B)): 165 ± 30 nM
